Where two headings read alike, the source gives them in different places.
B1: pFUT2: pig Secretor type α(1,2)-fucosyltransferase expressed in COS cells; label also used for the plasmid encoding it (protein, UniProt Q10982 1-340, looked up)
Galactoside …: MLSMQASFFFPTGPFILFVFTASTIFHLQQRMVKIQPTWELQMVTQVTTESPSSPQLKGMWTINAIGRLGNQMGEYATLYALARMNGRPAFIPPEMHSTLAPIFRITLPVLHASTARRIPWQNYHLNDWMEERYRHIPGEYVRLTGYPCSWTFYHHLRTEILREFTLHNHVREEAQDFLRGLRVNGSRPSTYVGVHVRRGDYVHVMPNVWKGVVADRRYLEQALDWFRARYRSPVFVVSSNGMAWCRENINASRGDVVFAGNGIEGSPAKDFALLTQCNHTVMTIGTFGIWAAYLAGGETIYLANYTLPDSPFLKLFKPEAAFLPEWIGIEADLSPLLKH
B2: human FUT2: human α(1,2)-fucosyltransferase FUT2 (secretor), literature homologue (protein, UniProt Q10981 1-343, looked up)
Galactoside …: MLVVQMPFSFPMAHFILFVFTVSTIFHVQQRLAKIQAMWELPVQIPVLASTSKALGPSQLRGMWTINAIGRLGNQMGEYATLYALAKMNGRPAFIPAQMHSTLAPIFRITLPVLHSATASRIPWQNYHLNDWMEEEYRHIPGEYVRFTGYPCSWTFYHHLRQEILQEFTLHDHVREEAQKFLRGLQVNGSRPGTFVGVHVRRGDYVHVMPKVWKGVVADRRYLQQALDWFRARYSSLIFVVTSNGMAWCRENIDTSHGDVVFAGDGIEGSPAKDFALLTQCNHTIMTIGTFGIWAAYLTGGDTIYLANYTLPDSPFLKIFKPEAAFLPEWTGIAADLSPLLKH
B3: rabbit FUT2: rabbit α(1,2)-fucosyltransferase FUT2, literature homologue (protein, UniProt Q10983 1-354, looked up)
Galactoside …: MRFAPDYVLCPPTATRRLRATHPSVSTIYFLFTIFVVSTVFHCHQRLALVPAPWAYSARVVVVPGHLPREGMWTINAMGRLGNQMGEYATLYALAKENGRPAYIPAQMHSTLAPIFRISLPVLHSSTASRVPWQNYHLNDWMEERYRHIPVPYVRLTGYPCSWTFYHHLRHEILREFTLHDHVREEAQAFLRGLRVNGSRPSTFVGVHVRRGDYVRVMPQVWKGVVADRGYLEQALDWFRAPTAPPVFVVTSNGMAWCRENIDASRGDVVFAGNGLEGSPAKDFALLTQCNHTVMTIGTFGFWAAYLTGGDTVYLANYTAPDSPFHLVFKPEAAFLPEWVGITANMGRALWSGL
B4: human FUT1: human α(1,2)-fucosyltransferase FUT1 (H transferase), literature homologue (protein, UniProt P19526 1-365, looked up)
Galactoside …: MWLRSHRQLCLAFLLVCVLSVIFFLHIHQDSFPHGLGLSILCPDRRLVTPPVAIFCLPGTAMGPNASSSCPQHPASLSGTWTVYPNGRFGNQMGQYATLLALAQLNGRRAFILPAMHAALAPVFRITLPVLAPEVDSRTPWRELQLHDWMSEEYADLRDPFLKLSGFPCSWTFFHHLREQIRREFTLHDHLREEAQSVLGQLRLGRTGDRPRTFVGVHVRRGDYLQVMPQRWKGVVGDSAYLRQAMDWFRARHEAPVFVVTSNGMEWCKENIDTSQGDVTFAGDGQEATPWKDFALLTQCNHTIMTIGTFGFWAAYLAGGDTVYLANFTLPDSEFLKIFKPEAAFLPEWVGINADLSPLWTLAKP
B5: rabbit FUT1: rabbit α(1,2)-fucosyltransferase FUT1, literature homologue (protein, UniProt Q10979 1-373, looked up)
Galactoside …: MWPPSRRQLCLAFLLVCALSAFSFLLHLHQDLFRNGLALSLPCLERQPVPAPVAIVCLPVTSPASNASSCAGRPAAPSGIWTIHPDGRFGNQMGQYATLLALAQLNGRRAFILPAMHAALAPVFRITLPVLAPEVNRRTSWKQLLLHDWMSEEYSRLEDPFLKFTGFPCSWTFFHHVREQIRREFTLHDHLREEAQRLLGKLRLGRTGARPRTFVGVHVRRGDYLQVMPQRWKGVVGDRAYLQQAMDWFRARHEAPIFVVTSNGMKWCWENIDASRGDVVFAGNGLESSPAKDFALLTQCNHTVMTIGTFGFWAAYLAGGDTVYLANFTLPDSEFLKIFKPEAAFLPEWVGINADLSPVRTLSGSWRPWRFLG
B6: pFUT1: pig H type α(1,2)-fucosyltransferase expressed in COS cells; label also used for the plasmid encoding it (protein, UniProt Q29043 1-365, looked up)
Galactoside …: MWVPSRRHLCLTFLLVCVLAAIFFLNVYQDLFYSGLDLLALCPDHNVVSSPVAIFCLAGTPVHPNASDSCPKHPASLSGTWTIYPDGRFGNQMGQYATLLALAQLNGRQAFIQPAMHAVLAPVFRITLPVLAPEVDRHAPWRELELHDWMSEDYAHLKEPWLKLTGFPCSWTFFHHLREQIRSEFTLHDHLRQEAQGVLSQFRLPRTGDRPSTFVGVHVRRGDYLRVMPKRWKGVVGDGAYLQQAMDWFRARYEAPVFVVTSNGMEWCRKNIDTSRGDVIFAGDGREAAPARDFALLVQCNHTIMTIGTFGFWAAYLAGGDTIYLANFTLPTSSFLKIFKPEAAFLPEWVGINADLSPLQMLAGP

Legend:
[1] = system: α(1,2)-fucosyltransferase; experiment: α(1,2)-fucosyltransferase activity in lysates of transfected COS cells; format: biochemical, pig; conditions: mock-transfected baseline 1.1
Procedure: (§1) Cells were washed twice with phosphate buffered saline and lysed in either 1% Triton X100/100 mM Tris pH7.0 or 1% Triton X100/100 mM sodium cacodylate pH 6.5/25 mM MnCl2 at 4° C. for 30 min, lysates centrifuged and the supernatant collected and stored at −70° C. Protein concentration was determined by the Bradford test, using bovine serum albumin as a standard; 5-20 μg of cell extract was used per transferase assay. The assay for α-1,2 fucosyltransferase involved mixing cell extracts and acceptor (75 mM pheny-β-Dgalactoside (Sigma)) in 50 μl 50 mM MOPS (3-[N-Morpholino]propanesulphonic acid) pH 6.5; 20 mM MnCl2; 5 mM ATP; 3 μM GDP[^14C]-Fuc (specific activity 287 mCi/mmol, Amersham International plc, Amersham, UK) and incubation for 2 h at 37° C. The reaction was terminated by the addition of ethanol, and the incorporated ^14C-Fuc determined by liquid scintillation counting after separation in Sep-Pak C18 cartridges (Waters-Millipore, Millford, Mass.). In all cases the parallel reactions were performed in the absence of added acceptor molecules, to allow for the calculation of specific incorporation.
Cell lysates prepared from COS cells transfected with pFUT2 and pFUT1 were assayed for α(1,2)-fucosyltransferase activity. […] The enzyme activity measured in these lysates reflects the expression of H substance on the cell surface as shown in Example 2.

[2] = Enzyme kinetics, apparent Km, Type I substrate; format: biochemical; conditions: Type I Galβ(1,3)GlcNAc; lysates of transfected COS cells
Procedure: as §1
(§2) Cell lysates prepared from COS cells transfected in the manner described in Example 1 with pFUT2 (pig Se), pFUT1 (pig H transferase), or with vector alone were assayed for α(1,2)-fucosyltransferase activity, and the kinetic values were calculated. […]

[3] = Enzyme kinetics, apparent Km, Type II substrate; format: biochemical; conditions: Type II Galβ(1,4)GlcNAc; lysates of transfected COS cells
Procedure: as §1, §2

[4] = Enzyme kinetics, apparent Km, Type III substrate; format: biochemical; conditions: Type III Galβ(1,3)GalNAc; lysates of transfected COS cells
Procedure: as §1, §2

[5] = Enzyme kinetics, apparent Km, Type IV substrate; format: biochemical; conditions: Type IV Galβ(1,4)Gal; lysates of transfected COS cells
Procedure: as §1, §2

[6] = Enzyme kinetics, apparent Km, lactose; format: biochemical; conditions: Lactose Galβ(1,4)Glc; lysates of transfected COS cells
Procedure: as §1, §2

[7] = Type I Galβ(1,3)GlcNAc; literature refs 34, 35; read-out: Km reported; cited from earlier work
[8] = Type II Galβ(1,4)GlcNAc; literature refs 34, 37; read-out: Km reported; cited from earlier work
[9] = Type III Galβ(1,3)GalNAc; literature ref 34; read-out: Km reported; cited from earlier work

Molecule | α(1,2)-fucosyltransferase activity [1] [nmol/h/mg] | Km [2] [mM] | Km [3] [mM] | Km [4] [mM] | Km [5] [mM] | Km [6] [mM] | Km [7] [mM] | Km [8] [mM] | Km [9] [mM]
B1 | 151.1 | 1.3 | 4.4 | 0.2 | 1.5 | 7.4 | – | – | –
B2 | – | – | – | – | – | – | 1 | 5.7 | –
B3 | – | – | – | – | – | – | 1.5 | 6.7 | 1
B4 | – | – | – | – | – | – | 2 | 1.9 | –
B5 | – | – | – | – | – | – | 3.1 | 4.2 | 5.8
B6 | 140.0 | 6 | 3.7 | 14 | 4.2 | 1.9 | – | – | –

— patent US6399758B1, “Nucleic acids for reducing carbohydrate epitopes” (The Austin Research Institute, priority 1996, dated 2002)
